Test results as given in patent publication US20250297004A1, “NECTIN-4 BINDING AGENTS” (INNATE PHARMA, priority 2022, published 2025).

Assays:
Experiment in all cases: binding to HEK293T cells expressing Nectin-4 mutant
[1] = molecular target: T1, human Nectin-4 Mutant 8 (human, UniProt Q96NY8 32-510)
T1 construct: Expressed on transfected HEK293T cells; also called T190A/T191Q/S193A
T1 chain: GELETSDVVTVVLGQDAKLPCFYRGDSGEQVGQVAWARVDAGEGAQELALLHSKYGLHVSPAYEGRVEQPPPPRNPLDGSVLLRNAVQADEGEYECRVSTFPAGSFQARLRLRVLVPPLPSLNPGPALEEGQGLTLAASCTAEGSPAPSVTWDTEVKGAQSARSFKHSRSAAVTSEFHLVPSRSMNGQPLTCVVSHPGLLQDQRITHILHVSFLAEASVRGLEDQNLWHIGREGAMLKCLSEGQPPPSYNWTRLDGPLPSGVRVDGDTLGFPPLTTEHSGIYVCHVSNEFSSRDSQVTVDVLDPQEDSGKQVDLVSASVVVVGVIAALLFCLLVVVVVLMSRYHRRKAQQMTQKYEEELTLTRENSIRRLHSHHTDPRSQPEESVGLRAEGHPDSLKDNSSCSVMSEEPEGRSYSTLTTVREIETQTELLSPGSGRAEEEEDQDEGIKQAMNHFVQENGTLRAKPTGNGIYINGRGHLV

[2] = molecular target: T2, human Nectin-4 Mutant 6 (human, UniProt Q96NY8 32-510)
T2 construct: Expressed on transfected HEK293T cells; also called H238A/I239T/H241Q
T2 chain: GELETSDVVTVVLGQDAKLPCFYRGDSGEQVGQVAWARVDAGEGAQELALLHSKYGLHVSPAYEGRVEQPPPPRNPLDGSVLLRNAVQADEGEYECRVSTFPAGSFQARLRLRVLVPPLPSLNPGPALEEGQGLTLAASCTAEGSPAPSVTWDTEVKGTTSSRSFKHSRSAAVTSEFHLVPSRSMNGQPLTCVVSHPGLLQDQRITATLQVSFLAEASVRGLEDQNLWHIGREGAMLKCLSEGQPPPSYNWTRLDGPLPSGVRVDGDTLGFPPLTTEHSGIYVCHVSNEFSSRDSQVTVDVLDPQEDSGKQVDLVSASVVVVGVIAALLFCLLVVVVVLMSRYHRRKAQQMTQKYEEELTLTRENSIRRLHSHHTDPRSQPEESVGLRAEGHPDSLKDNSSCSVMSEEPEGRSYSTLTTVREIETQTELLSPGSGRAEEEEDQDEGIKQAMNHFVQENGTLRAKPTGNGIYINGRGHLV

[3] = molecular target: T3, human Nectin-4 Mutant 9 (human, UniProt Q96NY8 32-510)
T3 construct: Expressed on transfected HEK293T cells; also called L150S/S152A/Q234R/I236S
T3 chain: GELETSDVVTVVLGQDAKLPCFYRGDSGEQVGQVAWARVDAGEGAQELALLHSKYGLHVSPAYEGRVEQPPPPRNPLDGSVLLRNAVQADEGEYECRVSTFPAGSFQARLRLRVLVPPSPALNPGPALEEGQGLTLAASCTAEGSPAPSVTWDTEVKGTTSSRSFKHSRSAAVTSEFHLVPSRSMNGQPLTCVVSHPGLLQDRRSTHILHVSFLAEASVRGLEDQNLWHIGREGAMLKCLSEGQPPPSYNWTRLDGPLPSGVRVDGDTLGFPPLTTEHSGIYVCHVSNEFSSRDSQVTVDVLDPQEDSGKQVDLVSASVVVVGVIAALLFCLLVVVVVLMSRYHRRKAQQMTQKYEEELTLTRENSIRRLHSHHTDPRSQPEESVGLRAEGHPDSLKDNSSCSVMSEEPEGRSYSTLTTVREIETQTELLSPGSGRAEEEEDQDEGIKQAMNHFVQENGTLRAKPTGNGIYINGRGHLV

[4] = molecular target: T4, human Nectin-4 Mutant 2 (human, UniProt Q96NY8 32-510)
T4 construct: Expressed on transfected HEK293T cells; also called V90S/P92A/A93S/E95A/G96D
T4 chain: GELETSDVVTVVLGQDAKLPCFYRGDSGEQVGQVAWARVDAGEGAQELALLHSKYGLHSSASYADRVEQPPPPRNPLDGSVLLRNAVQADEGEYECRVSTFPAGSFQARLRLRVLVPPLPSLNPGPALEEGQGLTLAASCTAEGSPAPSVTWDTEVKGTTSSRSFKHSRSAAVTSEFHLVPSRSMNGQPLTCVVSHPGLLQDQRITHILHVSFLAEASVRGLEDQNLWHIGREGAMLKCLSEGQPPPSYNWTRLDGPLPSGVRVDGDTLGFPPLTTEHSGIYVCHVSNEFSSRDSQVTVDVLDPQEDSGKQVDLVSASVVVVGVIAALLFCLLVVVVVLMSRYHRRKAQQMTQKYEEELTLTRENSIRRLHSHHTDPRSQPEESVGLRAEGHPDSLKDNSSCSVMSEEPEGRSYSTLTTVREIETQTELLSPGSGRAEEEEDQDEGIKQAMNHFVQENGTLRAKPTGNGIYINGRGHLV

[5] = molecular target: T5, human Nectin-4 Mutant 3 (human, UniProt Q96NY8 32-510)
T5 construct: Expressed on transfected HEK293T cells; also called A76S/Q77R/E78A/S91N
T5 chain: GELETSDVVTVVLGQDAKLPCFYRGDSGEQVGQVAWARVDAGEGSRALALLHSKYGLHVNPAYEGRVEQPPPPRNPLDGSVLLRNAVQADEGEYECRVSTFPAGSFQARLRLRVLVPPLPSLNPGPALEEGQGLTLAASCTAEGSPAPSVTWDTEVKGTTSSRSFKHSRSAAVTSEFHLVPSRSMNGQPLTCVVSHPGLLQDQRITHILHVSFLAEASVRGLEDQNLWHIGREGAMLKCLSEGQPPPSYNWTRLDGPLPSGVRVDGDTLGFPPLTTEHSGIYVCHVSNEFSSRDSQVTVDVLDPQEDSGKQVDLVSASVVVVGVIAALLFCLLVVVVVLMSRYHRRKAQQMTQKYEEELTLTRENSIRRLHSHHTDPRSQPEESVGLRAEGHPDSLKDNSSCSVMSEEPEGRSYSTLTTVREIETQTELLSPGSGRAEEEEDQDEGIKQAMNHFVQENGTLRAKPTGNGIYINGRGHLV

Measured: binding result

B1: chimeric parental 5E7 antibody (antibody, V domains shown)
VH: QVQLQQPGAELVKPGASVKLSCKASGYIFTSYWMHWVKQRPGQGLEWIGEIDPSDSYTNYNQKFKGKATLTLDKSSSTTYMQLSSLTSEDSAVYYCVRGYGNYGDYWGQGTTLTVSS
VL: DVVMTQAAFSNPVTLGTSASISCRSSKSLLHSNGITYLYWYLQKPGQSPQLLIYQMSNLASGVPDRFSSSGSGTDFTLRISRVEAEDVGVYYCAQNLELPWTFGGGTKLEIKR
notes: Chimeric antibody, murine variable domains with human constant regions; also called ch5E7; CHG1-M-1N4-5E7
binds: all assays above

B2: N41 (antibody, V domains shown)
VH: QVQLKQSGPGLVQPSQSLSITCTVSGFSLTNYGVHWVRQSPGKGLEWLGVIWSGGSTDYNAAFISRLSISKDTSKSQVFFKMNSLQADDTAIYYCARELIHAMDNWGQGTSVTVSS
VL: DIQMTQSPASLSVSVGETVTITCRASENIYSNLAWYQQKQGNSPQLLVFAATNLADGVPSRFSGSGSGTQYSLKINSLQSEDFGTYYCQHFWGTPTFGGGTKLEIK
binds: all assays above
